Assay [1] has as its target uL23(52pBpa), in 70S ribosomes, RNCs or living cells (E. coli) (UniProt P0ADZ0). Put plainly: cross-linking; competition: SecA (2.5 uM) premixed with Ffh/SRP (0.5, 2.5, 12.5 uM) in buffer C, 10 min 30°C with 0.5 uM 70S ribosomes bearing pBpa at position 71 or 52 of uL23, UV 20 min on ice; anti-SecA and anti-Ffh blots.
The target in assay [2] is uL23(71pBpa), in 70S ribosomes, RNCs or living cells (E. coli) (UniProt P0ADZ0). Described as above.

Consider “Ffh, the protein component of the bacterial signal recognition particle (SRP), purified (from UniProt P0AGD7 1-453) (natural protein)”, for which the reduction of the SecA-uL23 cross-linking product with SRP equimolar to SecA in assay [1] and in assay [2] was 50% in each case.

The record behind these values is paper PMC6692507.
